The source of these data is US12018084B2, “Anti-CXCR2 antibodies and uses thereof” (Cephalon LLC, priority 2018, dated 2024).

Positions count from the first letter of the chain named. Several values for one entry are separate records, joined by “and”; a condition that tells them apart may be missing. Equal entries are not always repeated.

Data set [1] relates to native cynomolgus CXCR2 expressed by cynomolgus neutrophils. The experiment in a line: Flow cytometry binding to cynomolgus blood neutrophils. Details: species or system cynomolgus monkey. To be noted: FIG. 2, MFI. Here is the method:
Whole human buffy coat, PBMC enriched fractions prepared from human peripheral blood buffy coat or cynomolgus monkey whole blood was used for analysis of antibody binding activity by flow cytometry. Briefly, blood was untreated or diluted 1:1 in sterile filtered room temperature phosphate-buffered saline (PBS). 30 mL samples were layered over 15 mL Lymphoprep™ (Stem Cell Technologies, cat #07851). Peripheral blood mononuclear cells (PBMC) were enriched by room temperature centrifugation at 700 g for 30 minutes with no braking. The PBMC layer was isolated and cells washed in PBS containing 2 mM EDTA with low speed centrifugation at 200 g, to remove platelet contamination. Whole blood or PBMC enriched cell fractions were resuspended in red blood cell lysing solution (BioLegend, 420301). Viable cell counts were determined and cells resuspended at 1×10^7 cells per mL in FACS buffer (1×PBS+0.5% (w/v) BSA+2 mM EDTA pH 7.2).
Flow cytometry binding assays using whole blood or PBMC enriched preparations: Binding assays to detect CXCR2 on blood neutrophil populations using test antibodies were performed essentially as described for assays using transiently transfected Expi293F™ cells. Binding of antibodies to human CXCR2 on the surface of the neutrophils was measured using anti-CXCR2 antibody directly conjugated to the fluorophore allophycocyanin (APC). Matched isotype control antibodies were included for comparison. Cells were incubated with lineage specific antibodies and 2 μg/ml of APC conjugated anti-CXCR2 antibody or isotype control prepared in ice cold 3% BSA/PBS for a minimum of 30 minutes at 4° C. The commercial anti-CXCR2 antibody (clone 48331 (R&D Systems FAB331A)) was used as a positive control. […] The level of fluorescence on the cell surface was measured by flow cytometry. Using this method, test anti-CXCR2 antibodies were detected binding neutrophils from both human and cynomolgus monkey.
A general note: In flow cytometry, cells or beads pass a laser one at a time.

A further data set deals with T1, Human CXCR2 (Homo sapiens, UniProt P25025).
T1 sequence (P25025 1-360): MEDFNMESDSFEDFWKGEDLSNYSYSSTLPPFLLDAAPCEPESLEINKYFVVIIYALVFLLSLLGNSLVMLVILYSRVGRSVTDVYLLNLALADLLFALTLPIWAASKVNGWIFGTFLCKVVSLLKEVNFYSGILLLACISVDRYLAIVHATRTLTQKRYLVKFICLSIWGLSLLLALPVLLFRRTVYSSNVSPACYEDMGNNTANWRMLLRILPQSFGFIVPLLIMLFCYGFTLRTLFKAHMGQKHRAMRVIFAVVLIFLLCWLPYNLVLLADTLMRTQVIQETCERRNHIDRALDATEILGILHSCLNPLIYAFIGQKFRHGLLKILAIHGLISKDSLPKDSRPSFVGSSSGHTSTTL
Nature of the data set: Flow cytometry binding assay, Expi293F cells transiently transfected with human CXCR2. On the set-up: host or cells: Expi293F cells, vector pTT5. The method, then:
For each 10 mL transfection, lipid-DNA complexes were prepared by diluting 10 μg of plasmid DNA in Opti-MEM™ I Reduced Serum Medium (Cat. no. 31985-062) to a total volume of 1.0 mL. 54 μL of ExpiFectamine™ 293 Reagent was diluted in Opti-MEM™ I medium to a total volume of 1.0 mL. Transfections were carried out according to manufacturer's instructions. The cells were incubated in a 37° C. incubator with a humidified atmosphere of 8% CO2 in air on an orbital shaker rotating at 200 rpm. Approximately 18-24 hours post-transfection, the cell viability was evaluated and transfected cells harvested for use.
(§1) Harvested cells were resuspended in FACS buffer (1×PBS+0.5% (w/v) bovine serum albumin (BSA)+2 mM EDTA pH 7.2). Approximately 2×10^5 cells were added per well in a 96-well round-bottomed plate. Cells were pelleted by centrifugation at 400 g for 5 mins at 4° C. and supernatants discarded. 25 μL of each test antibody or control antibody was added to the cells and incubated for 30 minutes at 4° C. Cells were washed twice in 100 μL FACS buffer followed by centrifugation at 400 g for 5 mins at 4° C.
For detection, 50 μL of secondary antibody (Table 2) was added to relevant samples. Commercially available antibodies that bound to transfected CXCR family members were used as positive controls to ensure that the cells were expressing the receptors. Cells were washed twice in 200 μL of FACS buffer followed by centrifugation at 400 g for 5 mins at 4° C. Before sample acquisition, cells were resuspended in 100 μL of FACS buffer. Samples were acquired using the high throughput sampler on a FACSCanto™ II cytometer (Beckton-Dickinson).
Binding of BKO-4A8 and variants thereof was detected by incubation of fluorochrome-conjugate anti-human IgG light chain lambda antibody. The binding activity of antibodies tested, quantified as mean fluorescent intensity, was independent of the antibody Fc region as illustrated in FIG. 9.

Data set [2] has as its system human CXCR family members (CXCR1, CXCR3, CXCR4, CXCR5, CXCR6, CXCR7). Nature of the data set: Flow cytometry binding to other human CXCR family members on transfected Expi293F cells. To be noted: FIG. 11. The method, then:
as §1
For detection, 50 μL of secondary antibody (Table 2) was added to relevant samples. Commercially available antibodies that bound to transfected CXCR family members were used as positive controls to ensure that the cells were expressing the receptors. Cells were washed twice in 200 μL of FACS buffer followed by centrifugation at 400 g for 5 mins at 4° C. Before sample acquisition, cells were resuspended in 100 μL of FACS buffer. Samples were acquired using the high throughput sampler on a FACSCanto™ II cytometer (Beckton-Dickinson). […]
The specificity of the anti-CXCR2 antibody BKO-4A8-101c was tested by assessing binding activity on Expi293F™ cells transiently transfected to express closely related human CXCR family members as illustrated in FIG. 11. Binding of BKO-4A8-101c was detected by incubation of fluorochrome-conjugate anti-human IgG antibody.

The subject of the next data set is cynomolgus monkeys. The experiment in a line: LPS induced acute lung inflammation in cynomolgus monkey. It is filed as in vivo. The method, then:
Biologics naïve (i.e. not previously administered exogenous biologics) male cynomolgus monkeys were randomized into groups receiving vehicle or the anti-CXCR2 antibody BKO-4A8-101c administered by intravenous administration at a dose of 1 mg/kg on days 0, 14, and 28. One hour post-treatment of test antibodies on day 0, animals were exposed to aerosolized bacterial lipopolysaccharide (LPS) by inhalation of 20 μg/L for 5 mins (total dose 20 μg/kg). This is a well-established model of acute lung inflammation. Inflammatory responses were characterized at 24 hours after LPS exposure by total and differential cell counts of bronchoalveolar lavage fluid of the left lung and compared to matched counts from naïve animals at pre-treatment day 14. Blood was collected at various time points for differential cell count and serum collected for pharmacokinetic analysis.

Setting [3] is: 1 mg/kg intravenous days 0, 14, 28.

Sequence of native cynomolgus CXCR2 expressed by cynomolgus neutrophils (as listed by the source): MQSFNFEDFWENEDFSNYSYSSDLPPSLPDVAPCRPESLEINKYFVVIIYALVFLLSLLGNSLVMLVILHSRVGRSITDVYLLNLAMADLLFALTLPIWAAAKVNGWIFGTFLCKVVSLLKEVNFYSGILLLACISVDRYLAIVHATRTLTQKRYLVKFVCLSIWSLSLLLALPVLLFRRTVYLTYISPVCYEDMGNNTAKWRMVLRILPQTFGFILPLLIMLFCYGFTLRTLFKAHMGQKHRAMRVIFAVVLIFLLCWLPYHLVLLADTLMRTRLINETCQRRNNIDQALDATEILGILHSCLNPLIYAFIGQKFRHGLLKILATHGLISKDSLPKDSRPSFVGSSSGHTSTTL

B1: BKO-4A8: parental anti-CXCR2 antibody, VH SEQ ID NO: 17, VL SEQ ID NO: 18 (antibody, V domains shown)
VH: EVQLLESGGGLVQPGGSLRLSCAASGFTFSSSTMSWVRQAPGKGLEWVSAISGRGRNTYYADSVKGRFTISRDNSRNTLYLQMNSLRAEDTAVYYCAIQMGYWGQGILVTVSS
VL: QSALTQPPSASGSPGQSVTISCIGTSSDVGGYNYVSWYQQHPDKAPKLMIYEVNKRPSGVPDRFSGSKSGNTASLTVSGLQAEDEADYYCSSYAGNNNFGVFGGGTKLTVL
modifications: BKO_4A8_VH; BKO_4A8_VL
Usually EC50 stands for the concentration giving half of the maximal effect. B1: the “binding to native cynomolgus CXCR2 on cynomolgus PBMCs / neutrophils” value in data set [1] is listed as “high binding activity”. In addition, in the data set with Human CXCR2 (combinatorial variants with light chain c, listed as 4A8 Control), the “Max binding (MFI)” value is 62074 MFI and 82797 MFI. Moreover, the EC50 in the data set with Human CXCR2 (combinatorial variants, Table 11) stood at 0.4 nM.

B2: 101c: VH SEQ ID NO: 108, VL SEQ ID NO: 110; renamed BKO-4A8-101c (antibody, V domains shown)
VH: B1 VH with M34Q, A40P, N57S, R76K, M100A
VL: B1 VL with D43G, N54S, N96S
modifications: 4A8 VH Variant 101 M34Q_A40P_N56S_R75K_M96A; 4A8 VL variant c D41G_N52S_N94S
notes: renamed BKO-4A8-101c
B2: the “specificity of binding among human CXCR family members” value in data set [2] was “strongly and exclusively bind human CXCR2”. In addition, the LPS-induced pulmonary neutrophilia entry with cynomolgus monkeys (1 mg/kg intravenous 1 hour before LPS, BAL 24 hours after LPS) was “markedly inhibited”. In the data set on cynomolgus monkeys (setting [3]), the “blood neutrophil counts following repeat dosing” value is “did not induce measurable changes” and the “tolerability, body weight” value is reported as “well tolerated with no loss in body weight”.
